Assay results: patent US20260001920A1

What was measured:
Test in all cases: cell-based or functional assay
[1] = molecular target: RpPpsR2 mutant (with Q105S and L137E introduced) (NLSx3-MS2-RpPpsR2 mutant) (bacteriophage MS2; Rhodopseudomonas palustris) (UniProt P03612)
[2] = molecular target: RpPpsR2 mutant (with Q105T and L137E introduced) (NLSx3-MS2-RpPpsR2 mutant) (bacteriophage MS2; Rhodopseudomonas palustris) (UniProt P03612)
[3] = molecular target: RpPpsR2 mutant L110A (NLSx3-MS2-RpPpsR2 mutant) (bacteriophage MS2; Rhodopseudomonas palustris) (UniProt P03612)
[4] = molecular target: RpPpsR2 domain-modified body D4-D1-D2 (NLSx3-MS2-RpPpsR2 mutant) (bacteriophage MS2; Rhodopseudomonas palustris) (UniProt P03612)
[5] = molecular target: RpPpsR2 domain-modified body D1-D2 (del C 15) (NLSx3-MS2-RpPpsR2 mutant) (bacteriophage MS2; Rhodopseudomonas palustris) (UniProt P03612)

light-dependent activation (ratio of NIR signal intensity to Dark signal intensity), CPTS luminescence reporter in HEK293T cells [1]	light-dependent activation (ratio of NIR signal intensity to Dark signal intensity), CPTS luminescence reporter in HEK293T cells [2] [times]	gene activation by light irradiation (NIR against Dark), CPTS luminescence reporter in HEK293T cells [3] [times]	light-dependent activation (NIR against Dark), CPTS luminescence reporter in HEK293T cells [4] [times]	light-dependent activation (NIR against Dark), CPTS luminescence reporter in HEK293T cells [5] [times]	Substance
10 >	> 10	–	–	–	RpBphP1 mutant (with Q502A and E513A introduced) (NLSx3-RpBphP1 mutant-p65-HSF1)
–	–	13.4	7.2	9.6	wild-type RpBphP1 (NLSx3-RpBphP1-p65-HSF1)
